The target in this test is actin (UniProt P68135). Kind of test: other fluorescence titration.

recombinant human cofilin, sequence (P23528 whole entry): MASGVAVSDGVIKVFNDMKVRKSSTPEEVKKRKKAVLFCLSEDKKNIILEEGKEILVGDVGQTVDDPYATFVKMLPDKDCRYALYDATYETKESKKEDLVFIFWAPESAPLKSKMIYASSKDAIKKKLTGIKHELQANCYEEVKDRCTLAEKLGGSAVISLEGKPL

“recombinant human cofilin (from UniProt P23528 1-166) (natural protein)”: the binding density (νcof) at 3 µM cofilin was above 0.9.

Source of the values: paper PMC4256095.
